Laboratory results as given in patent US20210123927A1.

Molecular target: galactose-deficient IgA1 (Gd-IgA1), enzymatically generated (UniProt P01876)
Assay: dot blot, anti-His detection

Sequence of UniProt P01876 (P01876 other isoform, or with tags, fused parts or gaps): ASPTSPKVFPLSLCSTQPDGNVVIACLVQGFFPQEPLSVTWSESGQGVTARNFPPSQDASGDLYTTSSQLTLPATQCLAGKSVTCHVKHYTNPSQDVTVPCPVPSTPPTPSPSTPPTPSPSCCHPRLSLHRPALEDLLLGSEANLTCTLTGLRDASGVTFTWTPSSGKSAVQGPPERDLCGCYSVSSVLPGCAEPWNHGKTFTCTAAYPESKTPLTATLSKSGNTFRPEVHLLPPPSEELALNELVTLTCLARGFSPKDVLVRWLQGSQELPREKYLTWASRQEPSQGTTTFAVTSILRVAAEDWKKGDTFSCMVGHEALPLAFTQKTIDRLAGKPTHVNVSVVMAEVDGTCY

RussiaSea-001 (Crenomytilus grayanus lectin/CGL), His-tagged (artificial RussiaSea-001) (from UniProt H2FH31 1-150)
amount of Gd-IgA1 detected in dot blot: > 1 µg
